In patent US10590454B2, “Methods of preventing and removing trisulfide bonds” (Biogen MA Inc., priority 2011, dated 2020):

Tests used:
[1] = Heat induced fragmentation, non-reducing capillary electrophoresis (CE-SDS); type: physicochemical; details: 70° C. for 3 minutes with iodoacetamide; compared to mAb-A-LT
Method: In these experiments, analysis of IgG1 mAb was performed by denaturing, non-reducing capillary electrophoresis in the presence of sodium dodecyl sulfate using an IgG Purity/Heterogeneity Assay Kit (# A10663) and ProteomeLab PA-800 instrument (Beckman Coulter). Samples (200 μg) were prepared by heating to 70° C. for 3 minutes in the presence of iodoacetamide, 1 mM SDS and a 10 kDa standard essentially as per manufacturer's instructions (Protocol A10424-AC) and separated for 35 min in a bare fused silica capillary with detection at 220 nm. The results, shown in FIGS. 1A and 1B show an increased level of fragmentation following sample preparation for non-reducing electrophoresis. The electrophoretic migration pattern of the single most abundant fragment was consistent with the loss of one light chain (L) from the intact mAb with the simultaneous generation of a species consisting of two heavy chains and one light chain (HHL fragment). This phenomenon was then used to rapidly screen for conditions that influence trisulfide content in IgG1 mAbs. In this screen, non-reducing electrophoresis was used as a rapid assay for detection of trisulfide bonds.

[2] = Differential scanning calorimetry; type: physicochemical; details: preparations with low or high H-L trisulfide or treated with 1 mM cysteine; 25° C. to 100° C.
Method: The DSC was performed using a MicroCal capillary VP-DSC system (Northampton, Mass., USA) with Origin VPViewer2000 v2.0.64 software. Sample concentration was 0.5 mg/mL in 50 mM sodium phosphate, 100 mM NaCl, pH 6.0. Thermograms were generated by scanning temperature from 25° C. to 100° C. at a rate of 2° C./min.

[3] = Stability of trisulfides in vivo in rats after intraperitoneal injection; details: rat, 100 mg/kg intraperitoneally, based on column recoveries
Method: The samples were incubated with 100 μL of the resin for 2 h at room temperature with mild agitation. The resin was then washed six times with 0.5 mL of PBS and six times with 0.5 mL of 25 mM sodium phosphate, 100 mM NaCl, pH 5.5, after which the bound antibody was eluted with 25 mM sodium phosphate, pH 2.8, 100-mM NaCl. […] Portions of the serum (750 μL for the 24-h point, and 1050 μL for the 72-h point) were subjected to IgSelect purification using 150 μL of IgSelect (protocol described above).

[4] = test system: cysteine degradation (release of hydrogen sulfide); experiment: Release of hydrogen sulfide from cysteine-containing medium with inhibitors of cysteine degradation; details: cell-culture medium, inhibitor 17.7 mM (1:1 to cysteine), 24 hours
Method: In order to test the effect of cysteine degradation inhibitors on release of hydrogen sulfide in cell-culture medium, various inhibitors were added to the medium at the concentration of 17.7 mM, which represents a 1:1 ratio to the concentration of cysteine in the medium. Released hydrogen sulfide concentration was measured after 24 hours of incubation. Briefly, 50 ml of medium was incubated overnight in a closed 100 ml bottle. The headspace was therefore equal to the liquid volume of the container. A Jerome 631-X hydrogen sulfide detector was connected to a short piece of silicon tubing to minimize holdup volume in the instrument. The end of the tubing was inserted into the headspace of the medium-containing bottle, and the Jerome 631-X detector sampled the headspace immediately after opening the bottle.
The effect of pyruvate on release of hydrogen sulfide from cysteine degradation was further tested. The experiments were performed as described above in Example 9. Concentration of released hydrogen sulfide was measured after incubation from solutions containing 17.7 mM cysteine, plus 200 g/L glucose or subgroups of amino acids, in the absence or presence of pyruvate.
The effect of pyruvate on release of hydrogen sulfide from cysteine degradation was also tested in various cell-culture media, including feed liquid, IMDM and DMEM. All cysteine concentrations were normalized to that in the feed liquid. 17.7 mM pyruvate was added to the medium, which represents a 1:1 ratio of cysteine to pyruvate in the medium. The experiments were performed as described above for Example 9. […] Thus, pyruvate can reduce cysteine degradation and H2S release in a variety of compositions and decrease the number of trisulfide bonds.

| Compound | Release of hydrogen sulfide [4] | also measured |
| --- | --- | --- |
| mAb1: anti-LINGO-1 antibody Li81, human IgG1 produced in CHO cells | – | Sensitivity to heat treatment (fragmentation to HHL species) [1]: increased sensitivity to extreme heat treatment; Transition temperature profiles [2]: no differences in transition temperature profiles detected; Level of mAb1 in the serum ([3]; after 24 h): 850 µg/mL; Level of mAb1 in the serum ([3]; after 72 h): 700 µg/mL |
| CCOC(=O)C(C)=O [ethyl pyruvate] | functionally stopped release of hydrogen sulfide | – |
| O=CC(O)CO (racemic) [DL-glyceraldehyde] | functionally stopped release of hydrogen sulfide | – |
| COC(=O)C(C)=O [methyl pyruvate] | functionally stopped release of hydrogen sulfide | – |
| O=CC(=O)O [glyoxylic acid] | functionally stopped release of hydrogen sulfide | – |
